# Test results reported in patent US8541373B2, “BChE albumin fusions for the treatment of cocaine abuse” (priority 2009, dated 2013).
# Where “and” joins values, the source holds several entries; their conditions need not be identical. Equal values may be shown once.
# Columns and labels:
# [1] = test system: cocaine; test: AlbuBChE PK/PD analysis, sigmoidal inhibitory effect Emax model (cocaine AUC)
# From the text: AlbuBChE PK/PD relationship was defined using the computer software WinNonlin Professional (Version 4.0.1 Pharsight Corporation, USA). Specifically the direct sigmoidal inhibitory Effect Emax model was use in which maximum effect (Emax) as measured by cocaine AUC was assumed at AlbuBChE concentration of zero. The model equation can be described as follows: Inhibitory Effect Sigmoid Emax, C=0 at Emax, C=infinity at Eo E=Emax−(Emax−E0)*(C**Gamma/(C**Gamma+EC50**Gamma))
# The PD parameter used in the analysis was cocaine AUC. PK parameters used in the model were AlbuBChE plasma concentrations at 2, 48, 96, 120, and 240 hr post-AlbuBChE dose. Due to the fact that AlbuBChE concentration was not measured at 2 hr post-AlbuBChE dose, the concentration at 3 hr postdose was used in the analysis with the assumptions that AlbuBChE concentration at 3 hr post AlbuBChE dose may reflect AlbuBChE conc. at 2 hr post AlbuBChE dose.
# [2] = AlbuBChE serum pharmacokinetics after single 5 mg/kg IM dose (ELISA); conditions: for AlbuBChE serum concentration, individual Squirrel monkeys: 5 mg/kg IM
# Experimental: To evaluate AlbuBChE pharmacokinetics and pharmacodynamics following a single 5 mg/kg intramuscular injection of AlbuBChE to Squirrel monkeys. AlbuBChE pharmacodynamic effect was measured following cocaine IV administration at a dose of 1 mg/kg in control animals or at 2, 72 and 96 hr post-AlbuBChE dose.
# Blood samples (0.4 mL) were collected from the femoral vein and placed into serum separator tubes (SST) at pre-dose, 24, 72, 96 & 336 hrs post-dose (samples collected at 336 hr (14 days) post-dose were intended to evaluate immunogenicity. The samples were also analyzed for AlbuBChE concentration). Tubes were maintained at room temperature for at least 1 hour, but not to exceed 4 hours prior to centrifugation. Samples were centrifuged and at least 200 μL of serum was harvested and maintained on dry ice prior to storage at approximately −70° C.
# Blocking is done with 2% casein in phosphate buffered saline (PBS), 200 μL/well, 2 hours at room temperature. After washing, 100 μL of diluted serum samples are added to the plates along with standards. Standards are generated through 2.6 fold, serial dilution of AlbuBChE from 420 to 5.2 ng/mL. Serum samples and standards are maintained at 10% serum by dilution with buffer containing pooled cynomolgus monkey serum. A wash step precedes detection with 100 μl of anti-HSA mAb-6502-HRP at 0.04 μg/mL for 1 hour. Wells are washed again, prior to developing with 100 μl, of tetramethylbenzidine substrate. After 15 minutes the reaction is terminated with 100 μL/well of 1N H2SO4 and read on SpectraMax plate reader at 450/570 nm. Values for unknown serum samples are calculated by interpolation of standard curve generated by 5-parameter fit of AlbuBChE standards. Serum samples collected at predose and on Day 14 postdose were also analyzed for immunogenicity.
# AlbuBChE pharmacokinetic parameter values were determined using serum concentration-time profiles for individual animals. The computer software WinNonlin Professional (Version 4.0.1 Pharsight Corporation, USA) was used. Specifically the model for non-compartmental analysis with extravascular input was applied.
# [3] = test system: cocaine discriminative-stimulus effects; test: Drug discrimination in methamphetamine-trained monkeys; assay type: in vivo, squirrel monkeys
# [4] = AlbuBChE antibodies and blood level after repeated AlbuBChE injections
# From the text: The monkeys trained to self-administer cocaine and also tested on the reinstatement procedure received a total of 4 injections of AlbuBChE. Blood was taken for determination of AlbuBChE antibodies after the first, second and fourth AlbuBChE injections.
# [5] = Previous pharmacokinetic study, SC, IM and IV administration (bioavailability); conditions: previous study in cynomolgus monkeys
# Experimental: AlbuBChE absolute bioavailability for IM and Sc routes of administration was calculated relative to IV at the […] dose level.
# In a previous study, AlbuBChE pharmacokinetic profile was evaluated in cynomolgus monkeys. In that study, the test article was administered SC (7.8, 2.4 and 0.78 mg/kg), IM (2.4 mg/kg) and IV (2.4 mg/kg). […] In addition, AlbuBChE IM dose levels of 0.2, 1 and 5 mg/kg were selected to define AlbuBChE pharmacodynamic range in cynomolgus monkeys.
# [6] = rats; cited from earlier work
# [7] = individual Squirrel monkeys, single IM 5 mg/kg
# [8] = individual Squirrel monkeys, single IM 5 mg/kg, apparent, first sample at 24 hr
# [9] = mean of 3 Squirrel monkeys, single IM 5 mg/kg
substance,measurement,setting,value
AlbuBChE,"AlbuBChE Conc. used in PK/PD analysis, individual animals","[1]; 0.2 mg/kg IM, time 2 hr",107 ng/mL and 257 ng/mL and 196 ng/mL
same,"AlbuBChE Conc. used in PK/PD analysis, individual animals","[1]; 0.2 mg/kg IM, time 48 hr",0 ng/mL and 66.4 ng/mL and 80.7 ng/mL
same,"AlbuBChE Conc. used in PK/PD analysis, individual animals","[1]; 0.2 mg/kg IM, time 96 hr",0 ng/mL (2×) and 30 ng/mL
same,"AlbuBChE Conc. used in PK/PD analysis, individual animals","[1]; 0.2 mg/kg IM, time 120 hr",0 ng/mL
same,"AlbuBChE Conc. used in PK/PD analysis, individual animals","[1]; 0.2 mg/kg IM, time 240 hr",0 ng/mL
same,"Cocaine AUC(0-t), individual animals","[1]; 0.2 mg/kg IM, cocaine 1 mg/kg IV 2 hr post-AlbuBChE",13317 ng·min/mL and 10812 ng·min/mL and 11504 ng·min/mL
same,"Cocaine AUC(0-t), individual animals","[1]; 0.2 mg/kg IM, cocaine 1 mg/kg IV 48 hr post-AlbuBChE",8550 ng·min/mL and 7315 ng·min/mL and 7276 ng·min/mL
same,"Cocaine AUC(0-t), individual animals","[1]; 0.2 mg/kg IM, cocaine 1 mg/kg IV 96 hr post-AlbuBChE",13936 ng·min/mL and 8978 ng·min/mL and 10522 ng·min/mL
same,"Cocaine AUC(0-t), individual animals","[1]; 0.2 mg/kg IM, cocaine 1 mg/kg IV 120 hr post-AlbuBChE",11293 ng·min/mL and 11428 ng·min/mL and 12111 ng·min/mL
same,"Cocaine AUC(0-t), individual animals","[1]; 0.2 mg/kg IM, cocaine 1 mg/kg IV 240 hr post-AlbuBChE",13669 ng·min/mL and 12762 ng·min/mL and 14649 ng·min/mL
same,"AlbuBChE Conc. used in PK/PD analysis, individual animals","[1]; 1 mg/kg IM, time 2 hr",1362 ng/mL and 918 ng/mL and 1777 ng/mL
same,"AlbuBChE Conc. used in PK/PD analysis, individual animals","[1]; 1 mg/kg IM, time 48 hr",389 ng/mL and 363 ng/mL and 264 ng/mL
same,"AlbuBChE Conc. used in PK/PD analysis, individual animals","[1]; 1 mg/kg IM, time 96 hr",87 ng/mL and 132 ng/mL and 75 ng/mL
same,"AlbuBChE Conc. used in PK/PD analysis, individual animals","[1]; 1 mg/kg IM, time 120 hr",36 ng/mL and 72 ng/mL and 38 ng/mL
same,"AlbuBChE Conc. used in PK/PD analysis, individual animals","[1]; 1 mg/kg IM, time 240 hr",0 ng/mL
same,"Cocaine AUC(0-t), individual animals","[1]; 1 mg/kg IM, cocaine 1 mg/kg IV 2 hr post-AlbuBChE",6597 ng·min/mL and 9746 ng·min/mL and 7297 ng·min/mL
same,"Cocaine AUC(0-t), individual animals","[1]; 1 mg/kg IM, cocaine 1 mg/kg IV 48 hr post-AlbuBChE",6025 ng·min/mL and 5033 ng·min/mL and 6839 ng·min/mL
same,"Cocaine AUC(0-t), individual animals","[1]; 1 mg/kg IM, cocaine 1 mg/kg IV 96 hr post-AlbuBChE",9166 ng·min/mL and 9925 ng·min/mL and 11042 ng·min/mL
same,"Cocaine AUC(0-t), individual animals","[1]; 1 mg/kg IM, cocaine 1 mg/kg IV 120 hr post-AlbuBChE",10451 ng·min/mL and 11561 ng·min/mL and 12568 ng·min/mL
same,"Cocaine AUC(0-t), individual animals","[1]; 1 mg/kg IM, cocaine 1 mg/kg IV 240 hr post-AlbuBChE",14533 ng·min/mL and 13998 ng·min/mL and 14560 ng·min/mL
same,"AlbuBChE Conc. used in PK/PD analysis, individual animals","[1]; 5 mg/kg IM, time 2 hr",3740 ng/mL and 9627 ng/mL and 4923 ng/mL
same,"AlbuBChE Conc. used in PK/PD analysis, individual animals","[1]; 5 mg/kg IM, time 48 hr",1330 ng/mL and 2644 ng/mL and 1605 ng/mL
same,"AlbuBChE Conc. used in PK/PD analysis, individual animals","[1]; 5 mg/kg IM, time 96 hr",415 ng/mL and 733 ng/mL and 455 ng/mL
same,"AlbuBChE Conc. used in PK/PD analysis, individual animals","[1]; 5 mg/kg IM, time 120 hr",217 ng/mL and 326 ng/mL and 224 ng/mL
same,"AlbuBChE Conc. used in PK/PD analysis, individual animals","[1]; 5 mg/kg IM, time 240 hr",58 ng/mL and 71 ng/mL and 63 ng/mL
same,"Cocaine AUC(0-t), individual animals","[1]; 5 mg/kg IM, cocaine 1 mg/kg IV 2 hr post-AlbuBChE",4594 ng·min/mL and 3039 ng·min/mL and 2234 ng·min/mL
same,"Cocaine AUC(0-t), individual animals","[1]; 5 mg/kg IM, cocaine 1 mg/kg IV 48 hr post-AlbuBChE",3323 ng·min/mL and 2628 ng·min/mL and 3095 ng·min/mL
same,"Cocaine AUC(0-t), individual animals","[1]; 5 mg/kg IM, cocaine 1 mg/kg IV 96 hr post-AlbuBChE",6428 ng·min/mL and 6887 ng·min/mL and 6556 ng·min/mL
same,"Cocaine AUC(0-t), individual animals","[1]; 5 mg/kg IM, cocaine 1 mg/kg IV 120 hr post-AlbuBChE",7954 ng·min/mL and 9620 ng·min/mL and 10560 ng·min/mL
same,"Cocaine AUC(0-t), individual animals","[1]; 5 mg/kg IM, cocaine 1 mg/kg IV 240 hr post-AlbuBChE",11173 ng·min/mL and 13745 ng·min/mL and 13937 ng·min/mL
same,AlbuBChE serum concentration that may result in 50% decrease in cocaine concentration (EC50),"[1]; cynomolgus monkeys, sigmoidal inhibitory effect Emax model, PD parameter cocaine AUC",~0.6 µg/mL
same,"AlbuBChE serum concentration, individual Squirrel monkeys",[2]; 24 hr post dose,2340.2 ng/mL and 2296.7 ng/mL and 2036.7 ng/mL
same,"AlbuBChE serum concentration, individual Squirrel monkeys",[2]; 72 hr post dose,436.9 ng/mL and 517.7 ng/mL and 433.7 ng/mL
same,"AlbuBChE serum concentration, individual Squirrel monkeys",[2]; 96 hr post dose,247.5 ng/mL (2×) and 233.5 ng/mL
same,"AlbuBChE serum concentration, individual Squirrel monkeys",[2]; 336 hr post dose,23.4 ng/mL and 19.0 ng/mL and 7.0 ng/mL
same,t½,"[2]; individual Squirrel monkeys (MKY 547, 3434, 53B), single IM 5 mg/kg AlbuBChE, serum, non-compartmental",58.8 h and 45.5 h and 65.5 h
same,AUC % Extrap,[2]; [7],1.17% and 0.380% and 1.61%
same,AUC(0-t),[2]; [7],136.268 µg·h/mL and 120.596 µg·h/mL and 135.454 µg·h/mL
same,AUC(0-∞),[2]; [7],137.881 µg·h/mL and 121.056 µg·h/mL and 137.666 µg·h/mL
same,Cmax,[2]; [8],2297 ng/mL and 2037 ng/mL and 2340 ng/mL
same,tmax,[2]; [8],24 h
same,AUC(0-t) Mean,[2]; [9],130.773 µg·h/mL
same,AUC(0-∞) Mean,[2]; [9],132.201 µg·h/mL
same,Generalization of cocaine to the methamphetamine cue,"[3]; 5 mg/kg 2 hrs prior, 0.3 mg/kg cocaine",failed to generalize
same,Substitution of cocaine for methamphetamine,"[3]; 5 mg/kg 2 hrs prior, 1.0 mg/kg cocaine",approximately 70%
same,Generalization of cocaine to the methamphetamine cue,"[3]; 24 hrs following AlbuBChE, 0.3 mg/kg cocaine",approximately 70%
same,Generalization of cocaine to the methamphetamine cue,"[3]; 24 hrs following AlbuBChE, 1.0 mg/kg cocaine",fully generalized
same,Generalization of cocaine to the methamphetamine cue,"[3]; 48 hrs following AlbuBChE, 0.3 mg/kg cocaine",fully generalized
same,Generalization of methamphetamine to the methamphetamine cue,[3]; AlbuBChE 2 hrs prior to methamphetamine dose-effect function,did not affect generalization
same,Rate of responding in discrimination study,[3]; cocaine or methamphetamine treatment condition,did not affect the rate of responding
same,AlbuBChE antibody levels,"[4]; following the first 2 injections, level of detection titer 20",below the level of detection
same,"AlbuBChE antibody titer, individual monkeys",[4]; following the fourth injection,21 and 43 and 643
same,"Concentration of AlbuBChE in the blood, individual monkeys",[4]; one week following the AlbuBChE injection (fourth),27 ng/mL and 55 ng/mL and 53 ng/mL
same,Bioavailability,[5]; IM,79%
same,Bioavailability,[5]; SC,35-39%
same,Side effects of intravenous administration,[6],modest increase in blood pressure and mild lethargy
